Data taken from patent US20040259198A1, “Purified and isolated mat II beta subunit nucleic acids and polypeptides and therapeutic and screening methods using same” (priority 1999, published 2004).
Read-outs that look alike come from different tables or passages of the source.

What was measured:
[1] = MAT assay of recombinant MAT II β subunit protein alone; format: biochemical
Description: MAT activity was assayed as previously described (22,29,31). The assay contained 5-120 μM L-methionine (L-Met), 5 mM ATP in 50 mM TES buffer, pH 7.4,50 mM KCl, 15 mM MgCl2, 0.3 mM EDTA, and 4 mM DTT. The L-Met concentration was varied as indicated in the kinetic analysis. One unit (U) of MAT activity is defined as the amount of enzyme that catalyzes the formation of 1 nmol of AdoMet in 1 hour.

MAT II = assay: MAT activity and kinetics in extracts of transfected Cos-1 cells; format: biochemical, African green monkey
Description: Transfection of Cos-1 cells with pTargeT™/MAT2A or pTargeT™/MAT2B was done using the cationic lipid reagent, Transfast™ (Promega). Preliminary experiments were carried out to optimize the transfection conditions. Typically, 1.5×10^6 cells were plated in 100 mm dish one day prior to transfection. For each plate, […] of vector DNA was applied in the ratio of 1:1 to Transfast™ in a protein-free medium for 2 h. For cells co-transfected with both α2 and β vectors, […] DNA from each was used. For each experiment, one untransfected plate served as a normal control, and a second plate was transfected with the pTargeT™ vector only (mock-transfected cells). After 48 h, cells were harvested by trypsinization with a solution containing 0.05% trypsin and 0.53 mM EDTA in Hank's balanced salt solution (HBSS, from Cellgro). Trypsinization was stopped by the addition of media supplemented with 10% FCS, cells were pelleted, washed three times in 1 ml HBSS, counted, then resuspended in 1× extraction buffer with protease inhibitors (50 mM Tris, pH 7.4, 100 mM NaCl, 5 mM MgCl2, 4 mM dithiothreitol, 0.1 IU/ml aprotinin, 0.5 mM PMSF and […] soybean trypsin inhibitor). Cells were lysed by three cycles of quick freezing and thawing, and the lysate was clarified by centrifugation at 15,000×g for 10 min at 4° C. If not immediately used; cell extracts were stored at −80° C. Protein assays were performed using the bicinchoninic acid reagent (Sigma) following the manufacturer instructions.
MAT activity in cell extracts was assayed as previously described (Kotb, M., and Kredich, N. M. (1985) J. Biol. Chem. 260, 3923-30). […] The concentration of L-Met was varied between […] using ^14C-L-Met (57.9 mCi/mmol) to a concentration of up to […], and supplementary with cold L-Met for higher concentrations.

E. coli MAT α protein = E. coli MAT α protein (Escherichia coli, UniProt P0A817); settings: Ni-NTA agarose, native conditions
E. coli MAT α protein, sequence (Q9NZL9 whole entry): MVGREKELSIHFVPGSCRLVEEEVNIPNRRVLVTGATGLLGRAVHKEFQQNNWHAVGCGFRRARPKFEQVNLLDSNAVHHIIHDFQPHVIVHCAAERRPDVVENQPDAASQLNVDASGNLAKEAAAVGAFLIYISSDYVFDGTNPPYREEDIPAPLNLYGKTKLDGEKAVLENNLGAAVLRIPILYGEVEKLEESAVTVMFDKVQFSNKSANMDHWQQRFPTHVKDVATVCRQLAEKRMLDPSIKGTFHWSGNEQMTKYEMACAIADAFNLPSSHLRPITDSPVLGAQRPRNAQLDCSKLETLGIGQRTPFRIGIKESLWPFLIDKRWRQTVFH
E. coli MAT α protein, sequence (P0A817 2-384): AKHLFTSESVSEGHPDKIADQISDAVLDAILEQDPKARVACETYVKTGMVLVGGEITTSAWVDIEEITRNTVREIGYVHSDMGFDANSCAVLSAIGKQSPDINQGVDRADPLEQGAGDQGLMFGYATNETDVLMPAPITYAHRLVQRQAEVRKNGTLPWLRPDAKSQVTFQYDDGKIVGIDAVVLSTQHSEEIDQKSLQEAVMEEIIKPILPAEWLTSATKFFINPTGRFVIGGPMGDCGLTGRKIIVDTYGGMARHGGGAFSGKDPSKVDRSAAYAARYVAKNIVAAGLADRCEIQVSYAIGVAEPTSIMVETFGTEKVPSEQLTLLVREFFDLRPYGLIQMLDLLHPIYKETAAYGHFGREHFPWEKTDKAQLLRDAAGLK
Description: The MAT II β expression clone, Clone 5, was inoculated into one liter of LB broth containing 25 μg/ml kanamycin and 100 μg/ml ampicillin, then incubated with shaking at 37° C. until an OD600 of 0.5-0.7 was reached. IPTG (Sigma) was added to a final concentration of 1 mM, and the culture was allowed to incubate for an additional 4 hours under the same conditions. […] The first, involved purification of the His-tagged protein under denaturing conditions of 8M urea, and the second involved separation of SDS-PAGE and elution of the β subunit protein from the gel.

B1: MAT II β subunit: recombinant regulatory β subunit of human methionine adenosyltransferase II, 334 amino acids, expressed in E. coli or Cos-1 cells (protein, UniProt Q9NZL9 2-334, looked up)
Methionine …: VGREKELSIHFVPGSCRLVEEEVNIPNRRVLVTGATGLLGRAVHKEFQQNNWHAVGCGFRRARPKFEQVNLLDSNAVHHIIHDFQPHVIVHCAAERRPDVVENQPDAASQLNVDASGNLAKEAAAVGAFLIYISSDYVFDGTNPPYREEDIPAPLNLYGKTKLDGEKAVLENNLGAAVLRIPILYGEVEKLEESAVTVMFDKVQFSNKSANMDHWQQRFPTHVKDVATVCRQLAEKRMLDPSIKGTFHWSGNEQMTKYEMACAIADAFNLPSSHLRPITDSPVLGAQRPRNAQLDCSKLETLGIGQRTPFRIGIKESLWPFLIDKRWRQTVFH
[1]
  MAT catalytic activity: no MAT catalytic activity
MAT II; expression in Cos-1 cells
  effect on the Km for L-Met of the endogenous MAT II: no effect
MAT II; expression in Cos-1 cells, result in words
  effect on MAT (specific) activity: increase
MAT II; extracts of Cos-1 cells transfected with β or co-transfected with α2 and β, single kinetic form, read-out: Km for L-Met
  Km: 20 µM
MAT II; transfected Cos-1 cell extracts compared to untransfected (or mock-transfected) cells
  increase in MAT activity: ~2 fold
E. coli MAT α protein; listed as recombinant MAT II β subunit protein
  association / co-purification with E. coli MAT α: associated spontaneously
E. coli MAT α protein; listed as recombinant human MAT II β subunit protein
  association / co-purification with E. coli MAT α: co-purifying
